Assay results: PMC13086950 (Nature Communications, 2026)

Key:
[1] = biological target: the molecule itself; assay: SEC-MALS; fraction A1 of GephFL, 100 μL at 1.3 mg/mL, Superose 6 Increase 10/300 GL, 20 mM HEPES pH 8.0, 150 mM NaCl, 1 mM EDTA, 5 mM β-mercaptoethanol
[2] = biological target: the molecule itself; assay: SEC-MALS; fraction A2’ of GephFL, 100 μL at 1.3 mg/mL, Superose 6 Increase 10/300 GL, 20 mM HEPES pH 8.0, 150 mM NaCl, 1 mM EDTA, 5 mM β-mercaptoethanol
[3] = biological target: the molecule itself; assay: SEC-MALS; fraction B1’ of GephFL, 100 μL at 1.2 mg/mL, Superose 6 Increase 10/300 GL, 20 mM HEPES pH 8.0, 150 mM NaCl, 1 mM EDTA, 5 mM β-mercaptoethanol

B1: Full-length gephyrin, splice variant P1 (natural protein)
chain: MAHHHHHHGGSSGGSSEFMATEGMILTNHDHQIRVGVLTVSDSCFRNLAEDRSGINLKDLVQDPSLLGGTISAYKIVPDEIEEIKETLIDWCDEKELNLILTTGGTGFAPRDVTPEATKEVIEREAPGMALAMLMGSLNVTPLGMLSRPVCGIRGKTLIINLPGSKKGSQECFQFILPALPHAIDLLRDAIVKVKEVHDELEDLPSPPPPLSPPPTTSPHKQTEDKGVQCEEEEEEKKDSGVASTEDSSSSHITAAALAAKIPDSIISRGVQVLPRDTASLSTTPSESPRAQATSRLSTASCPTPKVQSRCSSKENILRASHSAVDITKVARRHRMSPFPLTSMDKAFITVLEMTPVLGTEIINYRDGMGRVLAQDVYAKDNLPPFPASVKDGYAVRAADGPGDRFIIGESQAGEQPTQTVMPGQVMRVTTGAPIPCGADAVVQVEDTELIRESDDGTEELEVRILVQARPGQDIRPIGHDIKRGECVLAKGTHMGPSEIGLLATVGVTEVEVNKFPVVAVMSTGNELLNPEDDLLPGKIRDSNRSTLLATIQEHGYPTINLGIVGDNPDDLLNALNEGISRADVIITSGGVSMGEKDYLKQVLDIDLHAQIHFGRVFMKPGLPTTFATLDIDGVRKIIFALPGNPVSAVVTCNLFVVPALRKMQGILDPRPTIIKARLSCDVKLDPRPEYHRCILTWHHQEPLPWAQSTGNQMSSRLMSMRSANGLLMLPPKTEQYVELHKGEVVDVMVIGRL
stoichiometry N [1]: ~6 | stoichiometry N [2]: ~4 | stoichiometry N [3]: 2
